Test results published in the Human Domainome abundance scans (Beltran et al. 2025).
± gives the uncertainty stated by the source.

B1: Steroid hormone receptor ERR2, residues 100 to 176; numbered along this chain, O95718 (parent)
chain: KRLCLVCGDIASGYHYGVASCEACKAFFKRTIQGNIEYSCPATNECEITKRRRKSCQACRFMKCLKVGMLKEGVRLD

Variants of: B1
Assay: abundance fitness (aPCA) (normalised: wild type 0, dead -1); higher = more abundant; growth selection in yeast, the domain comes from the species named
Settings: Homo sapiens

Abundance fitness of substitutions, site by site:
E22: I -0.459 ± 0.12 | K -0.443 ± 0.091 | L -0.233 ± 0.046 | N 0.322 ± 0.068 | P -0.188 ± 0.071 | Q -0.092 ± 0.058 | S -0.154 ± 0.05 | T -0.19 ± 0.061 | V -0.131 ± 0.048 | W -0.142 ± 0.053 | Y -0.152 ± 0.076
A23: C 0.094 ± 0.067 | D 0.049 ± 0.1 | E 0.094 ± 0.054 | F -0.538 ± 0.24 | G 0.321 ± 0.035 | H -0.16 ± 0.099 | I -0.806 ± 0.41 | K -0.03 ± 0.059 | L -0.371 ± 0.057 | N -0.658 ± 0.21 | P 0.023 ± 0.063 | Q -0.039 ± 0.064 | R 0.166 ± 0.037 | T -0.376 ± 0.091 | V -0.014 ± 0.046 | Y -0.56 ± 0.18
C24: A -0.897 ± 0.095 | D 0.265 ± 0.07 | G -0.903 ± 0.069 | I -0.707 ± 0.21 | K -1.07 ± 0.2 | L -0.787 ± 0.071 | M -0.859 ± 0.11 | N -0.939 ± 0.3 | P -1.13 ± 0.22 | Q -0.685 ± 0.12 | R -0.744 ± 0.061 | S -0.869 ± 0.11 | T -1 ± 0.15 | V -0.906 ± 0.084 | W -0.784 ± 0.075 | Y -0.837 ± 0.2
K25: A 0.445 ± 0.035 | C 0.284 ± 0.051 | D 0.375 ± 0.049 | E 0.41 ± 0.037 | F 0.194 ± 0.063 | G 0.41 ± 0.029 | H 0.262 ± 0.062 | I 0.091 ± 0.063 | L 0.224 ± 0.033 | M 0.286 ± 0.048 | P 0.278 ± 0.051 | Q 0.317 ± 0.045 | R 0.208 ± 0.031 | S 0.222 ± 0.04 | T 0.146 ± 0.046 | V 0.344 ± 0.034 | Y 0.273 ± 0.067
A26: C -0.046 ± 0.061 | D 0.035 ± 0.081 | E 0.162 ± 0.048 | F -0.467 ± 0.12 | G 0.121 ± 0.036 | H 0.095 ± 0.089 | I -0.334 ± 0.18 | K -0.229 ± 0.066 | L -0.135 ± 0.043 | M -0.116 ± 0.058 | N -0.504 ± 0.17 | P -0.569 ± 0.11 | Q 0.051 ± 0.05 | S -0.338 ± 0.063 | V 0.114 ± 0.043 | W -0.075 ± 0.042 | Y -0.561 ± 0.17
F27: A -0.621 ± 0.071 | C -0.119 ± 0.063 | D -0.751 ± 0.18 | G -0.745 ± 0.06 | H -0.765 ± 0.22 | I -0.434 ± 0.16 | K -0.506 ± 0.077 | L -0.204 ± 0.043 | M -0.473 ± 0.073 | N -1.01 ± 0.27 | P -0.573 ± 0.12 | Q -0.945 ± 0.13 | R -0.715 ± 0.061 | S -0.746 ± 0.093 | V -0.535 ± 0.064 | W -0.578 ± 0.068
F28: A -0.321 ± 0.054 | C -0.843 ± 0.16 | E -0.638 ± 0.084 | G -0.687 ± 0.055 | H -0.748 ± 0.18 | K -0.694 ± 0.11 | L -0.413 ± 0.051 | N -0.922 ± 0.35 | P -0.725 ± 0.14 | Q -0.761 ± 0.14 | R -0.757 ± 0.065 | S -0.832 ± 0.1 | T -0.664 ± 0.12 | V -0.315 ± 0.047 | W 0.167 ± 0.039 | Y -0.78 ± 0.2
K29: A 0.18 ± 0.043 | C -0.335 ± 0.11 | D -0.014 ± 0.072 | E 0.217 ± 0.053 | F -0.132 ± 0.087 | G 0.096 ± 0.034 | H -0.067 ± 0.1 | I -0.481 ± 0.12 | M -0.064 ± 0.065 | N -0.193 ± 0.11 | P -0.841 ± 0.16 | Q 0.129 ± 0.054 | R 0.085 ± 0.039 | S 0.084 ± 0.045 | T 0.215 ± 0.049 | V 0.079 ± 0.038 | Y -0.65 ± 0.25
R30: A -0.312 ± 0.065 | C -0.573 ± 0.12 | D -0.255 ± 0.16 | E 0.125 ± 0.049 | F -0.763 ± 0.19 | G -0.006 ± 0.037 | H -0.357 ± 0.14 | I -0.775 ± 0.24 | L -0.466 ± 0.061 | M -0.355 ± 0.082 | N -0.381 ± 0.38 | P -0.989 ± 0.26 | Q 0.109 ± 0.057 | T -0.193 ± 0.087 | W -0.121 ± 0.05 | Y -0.799 ± 0.23
T31: A -0.353 ± 0.061 | C -0.423 ± 0.086 | D -0.724 ± 0.2 | E -0.744 ± 0.12 | F -1.1 ± 0.43 | G -0.484 ± 0.052 | H -0.655 ± 0.18 | I -0.295 ± 0.12 | L -0.83 ± 0.083 | M -0.223 ± 0.073 | N -0.546 ± 0.35 | P -0.951 ± 0.19 | R -0.678 ± 0.06 | S -0.175 ± 0.054 | V -0.223 ± 0.048 | W -0.925 ± 0.11
I32: A -0.21 ± 0.054 | C -0.803 ± 0.26 | D -0.642 ± 0.17 | E -0.148 ± 0.053 | F -0.115 ± 0.12 | G -0.344 ± 0.048 | K -0.337 ± 0.08 | L -0.362 ± 0.059 | M -0.47 ± 0.096
